The record followed here is patent US20060253917A1 (published 2006).

To fix the notation:
T1: OsCS aa 316-583 (Oryza sativa, UniProt A2Y0X2 316-583)
T1 construct: bait, Gal4 DBD fusion; also called PN19707
T1 sequence: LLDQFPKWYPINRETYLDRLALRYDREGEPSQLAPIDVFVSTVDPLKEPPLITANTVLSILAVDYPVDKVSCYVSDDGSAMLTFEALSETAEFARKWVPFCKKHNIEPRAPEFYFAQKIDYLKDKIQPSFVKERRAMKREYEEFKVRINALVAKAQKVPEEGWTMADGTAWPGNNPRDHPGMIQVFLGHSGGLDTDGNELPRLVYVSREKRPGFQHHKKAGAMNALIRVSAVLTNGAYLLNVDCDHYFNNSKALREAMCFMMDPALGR

T2: OsGF14-c aa 1-150 (Oryza sativa, UniProt Q6ZKC0 1-150)
T2 construct: bait, Gal4 DBD fusion; also called PN12464; O. sativa 14-3-3 Protein Homolog GF14-c
T2 sequence: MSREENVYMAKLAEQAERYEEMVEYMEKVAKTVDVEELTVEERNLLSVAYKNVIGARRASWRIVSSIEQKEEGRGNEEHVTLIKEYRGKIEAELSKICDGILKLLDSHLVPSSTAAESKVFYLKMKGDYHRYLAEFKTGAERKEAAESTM

T3: OsERP (PN20696) aa 50-145 (Oryza sativa, UniProt Q0JBH9 50-144)
T3 construct: bait, Gal4 DBD fusion; also called Elicitor responsive protein
T3 sequence: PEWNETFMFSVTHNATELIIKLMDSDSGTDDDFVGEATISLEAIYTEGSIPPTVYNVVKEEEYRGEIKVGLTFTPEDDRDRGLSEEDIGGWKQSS

B1: OsPIP2A aa 123-290 (other)
chain: RKVSLVRAILYIVAQCLGAICGVGLVNAFPNAYFNRYGGGANTLAAGYSKGTGLAAEIIGTFVLVYTVFSATDPKRNARDSHVPVLAPLPIGFAVFMVHLATIPITGTGINPARSIGAAVIFNNEKAWHNHWIFWVGPFVGAAIAAFYHQYILRAGAIKALGSFRSNA
notes: prey, AD fusion; also called PN29098; O. sativa Aquaporin
B2: OsAAB53810 aa 6-145 (other)
chain: IGPWGGNGGSAQDISVPPKKLLGVTIYSSDAIRSIAFNYIGVDGQEYAIGPWGGGESTSTEIKLGSSEQIKEISGTHGPVYDLADIVTYLKIVTSANNTYEAGVPNGKEFSIPLQDSGHVVGFFGRSGTLIDAIGIYVHP
notes: prey, AD fusion; also called PN29086; O. sativa salT Gene Product
B3: OsPN29076 aa 1-187 (other)
chain: ERDISMVNSYPPSAFDCKGWNSASIFIYESDEEIQCLLDWLRDYDPREKELKDSILQWQRHFCHQSSSPLVDPPISGPKGEQLMELPNTKAAVILEQKYGLQLDQDTSDLPKKRGKKIKLSSEDRTYRCDCLEPVWPSRYHCLTCHETYLISTEFEGHNDGKCSKIHQSPDESRENDEPKVKVTKSD
notes: prey, AD fusion; also called Novel Protein PN29076, Fragment
B4: OsPN23061 aa 94-203 (other)
chain: VITWTSPKEQVFEMPTGGAAIMREGPNLLKLARKEQCLALGTRLRSKYKINYQFYRVFPNGEVQYLHPKDGVYPEKVNAGRQGVGQNFRSIGKNVSPIEVKFTGKNVFDI
notes: prey, AD fusion; also called Hypothetical Protein OsContig3864, Similar to H. vulgare Photosystem I Reaction Center Subunit II, Chloroplast Precursor
B5: OsPN23059 aa 90-169 (other)
chain: PRRLTFDEIQSKTYMEVKGTGTANQCPTVEGGVDSFAFKAGKYNMKKFCLEPTSFTVKAEGVAKNAPPEFQKTKLMTRLT
notes: prey, AD fusion; also called OsContig4331
B6: OsBAB61062 aa 463-511 (other)
chain: AIDTYDDHRMAMAFSLAACADVPVTIRDPGCTRKTFPNYFDVLSTFVRN
modifications: not fully specified; cysteine pairing not given here
notes: prey, AD fusion; also called PN22844; O. sativa 3-Phosphoshikimate 1-carboxyvinyltransferase (EPSP Synthase)
B7: OsPN22874 aa 1-88 (other)
chain: GTNPGFRVGEIRLSNRDIYFGTLLGNTPEGSGRYVWSDGCTYDGEWRRGMRHGQGKTMWPSGATYEGEYSGGYIYGEGTYTGSDNIVY
notes: prey, AD fusion; also called Novel Protein 22874, Fragment, similar to Arabidopsis Putative Phosphatidylinositol-4-phosphate 5-kinase
B8: OsPN22866 aa 95-305 (other)
chain: LLALSDDLVKSNVFIEGVSHKIRRQIEELERAGGVESGALTVDGVPVDTYLTRFVWDEGKYPTMSPLKEIAGSIQSQVSKIEDDMKVRGAEYNNVRSQLNAINRKQTGSLAVRDLSNLVKPEDMVTSEHLVTLLAVVPQYSQKDWLSSYESLDTFVVPRSSKKLYEDNEYALYTVTLFAKVVDNFKVRAREKGFQVRDFEYSSEAQESRKE
notes: prey, AD fusion; also called Novel Protein PN22866, Fragment, Similar to A. Thaliana Vacuolar ATP Synthase Subunit C
B9: OsRCAA1 aa 68-210 (other)
chain: DISDDQQDITRGKGFVDSLFQAPTGDGTHEAVLSSYEYLSQGLRTYDFDNTMGGFYIAPAFMDKLVVHISKNFMTLPNIKVPLILGIWGGKGQGKSFQCELVFAKMGINPIMMSAGELESGNAGEPAKLIRQRYREAADIIKK
notes: prey, AD fusion; also called PN19842; O. sativa Ribulose Bisphosphate Carboxylase/Oxygenase Activase, Large Isoform A1
B10: OsBAA02730 aa 206-269 (other)
chain: QDNGLVPIVEPEILLDGEHGIDRTFEVAQKVWAETFFYMAENNVMFEGILLKPSMVTPGAECKD
notes: prey, AD fusion; also called PN22832; O. sativa Fructose-Bisphosphate Aldolase, Chloroplast Precursor
B11: OsPN30846 aa 1-266 (other)
chain: APRRPSTFLNAVALGNVGAGKSAVLNSLIGHPVLPTGENGATRAPIVVDLQRDPGLSSKSIVLQIDSKSQRVSASSLRHSLQDRLSKGASSGSSRGRVEGINLKLRTSTAPPLKLVDLPGIDQRAVDDPMINEYAGHNDAILLVVIPAMQAADVASSRALRLAKDIDADGTRTVGVISKVDQAEGDAKTIACVQALLLNKGPKNLPDIEWVALIGQSVAIASAQAAGSENSLETAWNAEAETLRSILTGAPKSKLGRIALVDTIAK
notes: prey, AD fusion; also called Novel Protein PN30846
B12: OsPN29982 aa 201-300 (other)
chain: SPVVDNADVTETKPQTELPVHVMCAEWSSQKRLKKVQLETLERVYSRTKRPTNTMISSIVQVTSLPRKTIVKWFEDRREQDGVPDHRVAFKRSLSETIAS
notes: prey, AD fusion; also called Novel Protein PN29982
B13: OsAAB46718 aa 82-126 (other)
chain: SPEEWSPTGDTYVGGTTGLLIWAVTLAGLLGGGALLVYNTSALAG
modifications: not fully specified
notes: prey, AD fusion; also called PN22840; O. sativa Photosystem II 10 kDa Polypeptide
B14: OsPN23059 aa 193-333 (other)
chain: DGIDYAAVTVQLPGGERVPFLFTIKNLVATGKPESFGGPFLVPSYRGSSFLDPKGRGGSTGYDNAVALPAGGRGDEEELAKENVKNASSSTGNITLSVTKSKPETGEVIGVFESVQPSDTDLGAKVPKDVKIQGVWYAQLE
notes: prey, AD fusion; also called OsContig4331, O. sativa Putative 33 kDa Oxygen-Evolving Protein of Photosystem II
B15: OsPN30974 aa 38-178 (other)
chain: GGYDHPGLIPGLPDEISLQILARMPRMGYLNAKMVSRSWKAAITGVELYRVRKELGVSEEWLYMLTKSDDGKLVWNAFDPVCGQWQRLPLMPGISHGGECKRGIPGLWLGDLLSAGIRVSDVIRGWLGQRDSLDRLPFCGC
notes: prey, AD fusion; also called Novel Protein PN30974
B16: OsPN22858 aa 27-154 (other)
chain: DKPTDGFSSIDEAIGALHEGKFVIAVDDESGDNEGDLVMAATLADPESIAFMIRNGSGIISVGMKEEDLTRLMIPMMSPIAEIEDISAAASTVTVDARVGISTGVSAADRAKTIFTLASPDSKPTDLR
notes: prey, AD fusion; also called Novel Protein 22858, Fragment, similar to Arabidopsis GTP Cyclohydrolase II
B17: PN30844 aa 1-64 (other)
chain: VAVRKKETRDGAMQTMPSRVQQGAADFEETLFVRCHLYCSGGAGTGKPLRFEPRPFLLSAVAVE
notes: prey, AD fusion; also called Novel protein PN30844
B18: PN30857 aa 1-148 (other)
chain: QDTRPLQAQRRRHGGGPQDRQREPSQGDFLRRQREEHPGGEEDRAPHGAGGHAAAGEGRGPRAGEHPQHQGGAAGAVGGGREGGGRAHLLRPRRHRDIGDRVGHTYCLSRLRRIAQNEQPSIHPCPSLAGQVIIRWEFRIGRDNNTFQ
notes: prey, AD fusion; also called Novel protein PN30857
B19: PN29983 aa 1-131 (other)
chain: GVETVVTDTAGNKVVVTGAADAAELKERIEARTKKAVQIVSAGAGPPPKKDKEEKKDKDKKGGGDDKKAEKEKGGGGGDKKAEKEKGGGDKPKEEKKAKEPKEETVTLKIRLHCEGCIDRIKRRICKIKGG
notes: prey, AD fusion; also called Novel protein PN29983
B20: PN29984 aa 1-38 (other)
chain: APSSSSGTTSRPTASRTQQTKGRLTVTISLKAYSPGRT
notes: prey, AD fusion; also called Novel Protein PN29984
B21: PN30843 aa 164-221 (other)
chain: RALQNFTAEELLDGGEKQYQCQRCRKKVVAKKKFTIDKAPYVLTIHLKRFSPFNPREK
modifications: cysteine pairing not given here; also: AD fusion
notes: prey, AD fusion; also called Ubiquitin specific protease-like
B22: PN30870 aa 1-446 (other)
chain: GEEDEHPHEGRAGVERRRQHVVVLLPPPLAVLEHEVVEDGARDEPARDVGRRRRRHPGEPVGDDGDVDERDPLLLRERPAEQPHRHGQHGAGEEQPHQVAVQAVAAEQPGGADEPPDHRRVERDPVLGARPRAVRVQRLHVADVVDAAQHPPRHRQVHHAGDHRAHQLRRVHAPRRDLHVVPQLEVREERQRVHRADPPVDLEQQVRDRLPRQRVPDHELRDDVVPRLLVGGGLDDADGEGDDEGEGEGEEHPPPRQLHLLPVHERHDQRHGDAADEQHEEPPLRHLLVPPHQLRVHVHLRRRGAHRRPALPPDVPAVEQRHVHDRRREPQEPGPDGDGEQRAQVQLPVALVRRHVEVELPREHLGGVVLLPGRREQLVGEDWELPRVERVELPVAERHDEVDEHDEARGGVGDGRPRRHQRAPVVRRDAGPVQCEGADAEAVVAG
notes: prey, AD fusion; also called Isp-4 like
B23: PN29984 aa 5-41 (other)
chain: SSGTTSRPTASRTQQTKGRLTVTISLKAYSPGRTRSG
notes: as for B20
B24: PN30845 aa 1-64 (other)
chain: GDQGRTYLFRVSNVGVKTSVNVRIQGHSLRLVEVEGTHPVQNVYDSLDVHVGQSVAFLVTLDKA
notes: prey, AD fusion; also called Pectinesterase-like
B25: PN30868 aa 167-336 (other)
chain: YNELAQLRAGKSSKSKLLIAKFKSPKSLNGWEVDQGSYFPNTFASRFDEGIDASFDFSEAGQAVFSGFVFTRGGYVEISKRLSLPLGSTLDRYDGLLFSVGGNGRSYVVILETGPLADTSQSKKYFARMTTKVGFCRVRVPFSAFRPVNPQDPPLDPFLVHTLTIRFEPK
notes: prey, AD fusion

Ends that are not written are not given here.

One assay concerns the target T1, OsCS aa 316-583. Nature of the assay: Y2H; output trait library. The method in brief: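 Rice protein fragments, each defined by an amino-acid range, served as bait against rice prey clone libraries in an automated, high-throughput yeast two-hybrid screen supplied by Myriad Genetics Inc. Prey clones that interacted were retrieved from the output trait library. The sequences encoding the retrieved fragments were compared against databases by BLAST analysis to identify the full-length genes. Each value records whether an interaction was detected.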
For B1, the binding result is listed as “binds”. Still for that read-out and setting: under B2 stands “binds”; under B3, “binds”.

Another assay concerns the target T2, OsGF14-c aa 1-150. Nature of the assay: Y2H; input trait library. The method in brief: (§1)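 Protein-protein interactions were detected in an automated, high-throughput yeast two-hybrid assay from Myriad Genetics Inc. (Salt Lake City, Utah), with a bait clone encoding a defined amino-acid fragment of a rice protein screened against the input trait or output trait rice prey library. Interacting proteins were identified by BLAST comparison of the encoding sequences of retrieved prey clones against databases.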
For B4, the binding result is listed as “binds”. B5: the binding result is “binds”. On to B6, for which the binding result is given as “binds”. Regarding B7, the binding result was “binds”.

Turning to B8, the binding result is “binds”. Turning to B9, the binding result was “binds”.

Regarding B10, the binding result is “binds”. B11: the binding result is listed as “binds”.

In the case of B12, the binding result is on record as “binds”. Turning to B13, the binding result was “binds”. As for B14, the binding result is on record as “binds”. With B15, the binding result was “binds”.

Consider B16, for which the binding result is “binds”.

The next assay concerns the target T3, OsERP (PN20696) aa 50-145. Nature of the assay: Y2H; input trait library. The method in brief:
as §1
On to B17, for which the binding result was “binds”. On to B18, for which the binding result is recorded as “binds”. With B19, the binding result is “binds”.

On to B20, for which the binding result is “binds”. With B21, the binding result is given as “binds”. As for B22, the binding result is listed as “binds”. For the molecule B23, the binding result is “binds”. Consider B24, for which the binding result was “binds”. With B25, the binding result was “binds”.
